Assay: yeast display, Sf9 membrane polyspecificity reagent, FACS + sequencing; frameworks hold sequencing errors
Procedure, shortened: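 Polyreactivity labels are assigned by the sorting gate from which each nanobody was recovered. The gates were low and high (top ~1%), set on anti-HA fluorescence for expression and streptavidin fluorescence for reagent binding. Before sorting, galactose-induced (36–48 hours) yeast display cells were stained for 1 hour at 4 °C with 10% biotinylated, detergent-solubilized Sf9 membrane reagent.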

Sequence | polyreactivity (PSR sort gate)
QVQLVESGGGLVQAGGSLRLSCAASGSNFHYNAMGWYRQAPGKERELVAAIRWGGGSTFYADSVKGRFTISRDNAKNTVYLQMNSLKPEDTAVYYCAADYWYETRDFTFFDLYVSYEYWGQGTQVTVSS | low polyreactivity
QVQLVESGGGLVQAGGSLRLSCAASGFTFRGYAMGWYRPAPGTERELVAAITKRGGSTYYADSVKGRFTISRDNAKNTVYLQMNSLKPEDTAVYYCAKTRRFGRYNAYWYRTYGYDYWGQGSQVTVSS | high polyreactivity
QVQLVESGGGLVQAGGSLRLSCAASGSIFGYNAMGWYRQAPGKEREFVAAINTSGGSTYYADSVKGSFTISRDNAKNTVYLQMYSLKPEATAVYYCAARAYSWISARYYWGLGTQVTVSS | high polyreactivity
QVQLVESGGGLVQAGGSLRLSSAASGLTFSDYAMAWYRQAPGKERELVAGISSGGSTYYADSVKGRFTISRDNAKNTVYLQMNSLKPEDTAVYYCAATRYNRWPIKFDYWVQGTQVTVSS | high polyreactivity
QVQLVESGGGLVQAGGSLRLSCAASGSTFRGYAMGWYRQAPGKERELVAAITGSGDRTRYADSVKGRFTISRDNAKNTVYIQMNSLKPEDTAVYYCAKFCPHWAYYSWGQGTQVTVSS | high polyreactivity
QVQLVESGGGLVQAGGSLRLSCAASGSTFGYYAMGWYRQAPGKERELVASITWGGGSTYYADSVKGRFTISRDNAKNTVYLQMNSLNPEDTAVYYCAATILGGTWGYGSYTYYYWGQGTQVTVSS | low polyreactivity
QVQLVESGGGLVQAGGSLRLSCAASGFTFDSNAMGWYRQAPGKERELVAAISRRGGSTYYADSVKGRFTISRDNAKNTVYLQMNSLKPEDTAVYYCNKESWRIGRYQYDSWGQGTQVTVSS | high polyreactivity
QVQLVESGGGLVQAGGSLRLSCAASGRTFYQYDMGWYRQAPGKESELVAAIDWSGGSTYYADSVKGRFTISRDYAKITVYLQMNSLKPEDTAVYYCNADAYPHPVVGYDYWGQGTQVTVSS | low polyreactivity
QGQRVESGGGLVQAGASLRLSCAASGFIFWEYAMGWSRQAPGKERELVAAISDSGGDTYYADSVKGRFTISRDNAKNTVYLEMHSLKPEDSAVYFCAADVELWVFRGQQYDYWGQGTQVTVSS | low polyreactivity
QVQLVESGGGLVQAGGSLRLSCAASGLIFSYYPMGWYRQAPGKERELVAAITGSGGTTYYADSVKGRFTISRDNAKNTVYLQMNSLKPEDTAVYYCATSPPEVWQRWYREYDYWGQVTQVTVSS | low polyreactivity
QVQLVESGGGLVLAGRSLRLICAASGSIFVYNAMGWYRQAPGKERELVAAISWSGGRTYYADSVKGRFTISRDNAKNTVYLQMNSLKPEDTAVYYCAALYTLRGYYYGTEYDYWGQGTQVTVSS | high polyreactivity
QVQLVESRGGLVQAGGSLRLSCAASGYIFRSNAMGWYRQAPGKERELVAAITRSGGSTYYADSVKGRFTISRDNAKITVFLQMNSLKPEDTAVYYCAVLPRGSNGMDYWGQGTQVTVSS | low polyreactivity
QVQLVESGGGLVQAGGSLRLSCAASGSTFTSYAMGWYRQAPGKERELVAAISKSGGSTYYADSVKGRFTISRDNAKKTVYFQMNSLKPEDTAVYYCAARYNVRSFSTSSFDYWGQGTQVTVSS | low polyreactivity
QVQLVESGGGLVQAGGSLRLSCAASGIIFRRYAMGWYRQAPGKERQLVARISFRGGSTYYADSVKGRFTISRDNAKNTVYLQMNSLKPEDTAVYYCNRDPRYSKEVDGDYWGQGTQVTVSS | high polyreactivity
QVQLQESGGGLVQAGGSLLSCAASGTISWVDEMGWYRQAPGNERELVAGIAGGGNTNYADSVKGRFTISRDNAKNTVYLQMNSLDTAVYYCAVVGFGGGTHIYWGQGTQVTVSS | high polyreactivity
QVQLVESGGGLVQAAGSLRLSCAASGITLYWYAMGWSRQAPGKERELVATISRRGGTTYYADSVKGRFTISRDNAKNTVYLQMNSLKPEDTAVYYCAKAPDTQTSWSRQEGNYWGQGTQVTVSS | low polyreactivity
QVQLVESGGGLVQAGGSLRLSCAASGSTFHVNAMGWYRQAPGKEREFGAVISSSAGRTYYADSVKGRFTISRDNAKNTVYLQMNSLKPEDTAVYYCAAGTFKPYWRKFEYWGQGTQVTVSS | high polyreactivity
QVQLVESGGGLVQAGGSLRLSCAASGSNFAGYAMGWYRPAPGKERALGAAISWSGGSTYYADSVKGRFTISRDNAKNTVYLQINSLKPEDTAVYYCNALRYGWKYNYWGQGTQVTVSS | high polyreactivity
QVQLVESGGGLVQAGGSLRLSCAASGSTFVNYAMVWYRQAPGKERELVAAITRGGYTYYADSVKGRFTISRDNAKNTVYLEMNSLKPEDTAFYYCNAAVSYPKYPYVSPGVPSYDYWGQGTQVSVSS | low polyreactivity
QVQLVESGGGLVQAGGSLRLSCAASGRIFGPYAMGWDRQAPGKERELVAAITWRGDRTYYADSVKGRFTISRDNPKNTVYLQMNSLKPEDTAVYYCAARGGRSEYDYWGQGTQVTVSS | low polyreactivity
QVQLVESGGGLVQAGGSLRLSCAASGLIFWINAMGWYRQAPWKERDLVAAITNSGGDTYYADSVKGRFTISRDNAKKTVYLQMNSLKTEDTAVYYCNADGTKWVRETYDYWGQGTQVTVSS | low polyreactivity
QDQLVESGGGLVQAGGRLRLSCAASGSIFLRNAIGWYRQAPGKERDLVAAISKSGGSTYYADSVKGRFTISRDNAKNTVYLQMNSLKPEDTAVYYCAARTTYLYGMYYWGQGTQVTVSS | low polyreactivity

Sequence | polyreactivity (PSR sort gate)
QVQLVESGGGLVQAGGSLRLSCAASGIIFTYYAMGWYRQAPGKEREFVAAISNGGSNTRYADSVKGRFTISRDNAKNTVYLQMNSLKPEDTAVYYCAARAYQHYNWGQGTQVTVSS | high polyreactivity
QVQLVESGGGLVQAGGSLRLSCAASGRTFEQYAMGWYRQARGKERELVAAISGSGGSTFYADSVKGRFTISRDNAKNTVYLQMNSLKPEDTAVYYCNAPGDGYLYDHTYDYWGQGTQVTVSS | low polyreactivity
QVQLEESGGGLVQAGGSLRLSCAASGRTSYSNAMGSYRQAPGQERELVAGITYRGGSTYYADSVKGRFTISRDNAKNTVYLQMNSLKPEDTAVYDCAVKYSWQSRFNYWGQGTQVTVSS | high polyreactivity
QVQLVESGGGLVQAGGSLRLSCATSGSTSYPYAMGWYRQAPGKERELVAAISTSGSTTYYADSVKVRFTLSRDNAKKTVYLQMNSLKPEDTAVYYCAKGVNFSQYPFSAYGDGGRYDYWGQGTQVTVSS | low polyreactivity
QVQLVESGGGLVQAGGSLRLSCAASGGTQRYYVMGSYRQAPGKERELVAAISWSGDSTYYADSVKGRFTISRDNAKNTVYLQMNSLKPEDTAVYYCAATYYLTYYYGQANHCYDYWGQGTQVTVSS | low polyreactivity
QVQLVESGGGLVQAGGSILLICSASGGNFYVYSMGWYRQAPGKERELVAAIRYSGGSTCYADSVKGRFTISRDNAKNTVYLLMNSLKTEYTAVYYCATVGWPFYPARDYDYSGQGTQVTVSS | low polyreactivity
QVQLVDSGGGLVQAGGSLRLSCAASGLIFSYNAMGWYRQAPGKERELVATIRRVGSTNYADSVKGRFTISRDNEKNTVYLQMNSLKPEDTAVYYCAARSLRYGRGMYYWGQGTQVTVSS | high polyreactivity
QVQLVESGGGLVQAGGSLRLSCAASGSTFGTYAMGWYRQAPGKERELVAAITRSGGSTYYADSVKGRFTISRDNAKNTVYLQMNSLKPEDTAVYYCAAVSKGYYYWGQGTQVTVSS | high polyreactivity
QVQLVESGGGLVQAGGSLRLSCAASGIIFQRNDMGWYRQAPGKERELVASITSGGSTNYADSVKGRFTISRDNAKNTVYLQMNSLKPEDTAVYYCARVSVSDYDYWGQGTQVTVSS | low polyreactivity
QVQLVESGGGLVQAGGSLRLSCAASGRTSTIYTMGWYRQAPGKEREIVASISAGAGTYYADSVKGRFTISRDNAKNTVYLQLNSLKPEDTAVYYCNASVYWRSTRRHQMDYWGQGTQVTVSS | high polyreactivity
QVQLVESGGGLVQAGGSLRLSCAASGFIIGSYTMGWYRQAPGKERELVASITKRGGSTYYADSVKGRFTISRDNAKNTVYFQMNSLKPEDTAVYYCAATYWFSHRSRYDYWGQGTQVTVSS | high polyreactivity
QVQLVESGGGLVQAGGSLRLSCAASGSTFYIYAMGWYRQAPGKERELVARISGSGGSTYYADSVKGRFTISRDNAKNTVYLQMNSLKPEDTAVYYCAADDIYKYYQYYAFPYYRYDYWGQGSQVTVSS | low polyreactivity
QVQLVESGGGLVQAGGSLRLSCAASGITFALYAMGWYRKAPGKERELVAAISYSGGRTYYADSVKGRFTISRDTAKNTVYLQMNSLKPEDTAVYYCAAGGSGSGPYGYGYWGQGTQVTVSS | high polyreactivity
QVQLGESGGGLVQAGGSLRLSCAASGFTFTRYAMGWYRQAPGKERELVAAIRWSGGRTYFADSVKGRFTISRDNAKNTVYLEMNRLKPEDTAVYYCNAVFYDPRREYDYWGQGTQVTVSS | high polyreactivity
QVQLVESGGGLVQAGGSLRISCAASGFTFWRYALGWYRQAPGKERELVAAISTGGSTNYADSVKGRFTISRDNAKNTVYLQMNSLKPEDTAVYYCNRQWNFTPYRRNYWGQGTQVTVSS | high polyreactivity
QVHLVESGGGLVQAGGSLRLSCAASGFTFRTYAMGWYRQAPGKERELVAAITRNGGTYYADSVKGRFTISRDNAKNTVNLQMNSLKPEDTAVYYCATDPAYWGDQPPEDDYWGQGTQVTVSS | low polyreactivity
QVQLVESGGGLVQAGGSLRLSCAASGRIFVKYVIGWYRQAPGKERELVAAISSSGGRTYYADSVKGRFTISRDNAKNTVYLQMNSLKPEDTAVYYCAASFRRIYVSGLGGPFDYWGQGTQVNVSS | high polyreactivity
QVQLVESGVGLVQAGGSLRLSCAASGSIFGFYAMGWSRQAPGKERELVAAISDSGDSTYYADSVKGRFTISRDNAKNTVYLQMNSLKPEDTAVYNCATDGRSNYYWGDYWGQGTQVTVSS | low polyreactivity
QVQLVESGGGLVQAGGSLRLSCAASRIIFYGNAMGWYRQAHGKERELVAAIDQSGDSTYYADSVKGRFTISRDNAKNTVYLQMNSLKPEDTAVYYCAADSLYLAYEYWGQGTQVTVSS | high polyreactivity
QVQLVESGGGLVQAGGSLRLSCAASGRTFWYYAMGWYRQAPGKERELVAAITYRGGSTYYADSVKGRFTISRDNVKNTVYLQMNSLKPEDTAVYYCARRVDSYYGHTRYYYWGQGTQVTVSS | high polyreactivity
QVQLVESGGGLVQAGGSLRLSCAASGFIFGYNAMGWYRQAPGKEREFVAAISWTGGRTYYADSVKGRFTISRDNAKNTVYLQMNSLKPEDTAVYYCAALRGWLPGTRTRYYYWGQGTQVTVSS | high polyreactivity
